Values quoted from earlier work, collected in article PMC6611644.
Several values for one entry are separate records, joined by “and”; a condition that tells them apart may be missing. Identical values can stand only once.

Biological target: GPIbα (Homo sapiens) (UniProt P07359)
Assay: SPR

Sequence of UniProt P07359 (P07359 17-306): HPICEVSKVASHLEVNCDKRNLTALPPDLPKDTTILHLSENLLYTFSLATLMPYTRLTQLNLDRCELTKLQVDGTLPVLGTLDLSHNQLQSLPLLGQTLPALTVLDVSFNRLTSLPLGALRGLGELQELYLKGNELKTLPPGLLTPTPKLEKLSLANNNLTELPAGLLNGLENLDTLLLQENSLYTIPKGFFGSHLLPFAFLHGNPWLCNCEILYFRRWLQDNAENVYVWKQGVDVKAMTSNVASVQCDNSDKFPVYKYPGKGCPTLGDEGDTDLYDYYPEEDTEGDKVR

Substance: GspB BR (from UniProt Q939N5)
- Kd: 0.0238 µM

Substance: Hsa BR (from UniProt A8AWU7)
- Kd: 0.00505 µM and 0.0305 µM
